Our source for the EC50 (read off the curve) values is patent publication US20220073586A1.

The experiment addresses PD-L1 antigen (coated on 96-well immunoplate) (UniProt Q9NZQ7). Nature of the experiment: single antigen ELISA, PD-L1 coated at 1 ug/mL, detection with anti-hFc-HRP. For orientation: ELISA stands for enzyme-linked immunosorbent assay.

Sequence of PD-L1 antigen (coated on 96-well immunoplate) (Q9NZQ7 19-238 limits assumed): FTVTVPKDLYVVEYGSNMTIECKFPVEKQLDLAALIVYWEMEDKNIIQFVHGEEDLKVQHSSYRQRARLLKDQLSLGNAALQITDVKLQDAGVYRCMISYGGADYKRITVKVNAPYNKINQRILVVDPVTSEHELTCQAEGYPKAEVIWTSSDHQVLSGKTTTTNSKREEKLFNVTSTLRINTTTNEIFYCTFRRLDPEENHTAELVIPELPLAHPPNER

As for “Tecentriq (Genetech, atezolizumab, anti-PD-L1 antibody)”, the EC50 (read off the curve) (as a rule, the midpoint of the concentration-response curve) is 0.03 µg/mL.
